Several values for one entry are separate records, joined by “and”; a condition that tells them apart may be missing. Equal values may be shown once.
Key:
protein C zymogen (PC) = protein C zymogen (PC) (Homo sapiens, UniProt P04070); test: Surface plasmon resonance, immobilized protein C zymogen; format: binding; settings: DrKIn-I 31.25, 62.5, 125 nM
Experimental: A: 70 μg of DrKIn-I in 0.1 ml equilibrating buffer (20 mM Tris-HCl, pH 8.0) was applied to a 5 ml HiTrap Heparin column and eluted with a 50 ml gradient from 0.0-1.0 M NaCl. The salt concentration corresponding to the elution peak was determined to be 0.95 M. B, Binding of DrKIn-I (0.78, 1.56, 2.34, 3.13, 4.68 and 6.25 nM) to immobilized APC was assessed in buffer containing 10 mM HEPES, 0.15 M NaCl, 3 mM EDTA and 0.05% P20 at a flow rate of 60 μl/min at 25° C. […] The thin lines represent the global fit to the response data. […] Results shown are means±SD of three experiments. Representative binding traces are shown.
Biacore T200 (GE Healthcare) was used for analysis. APC or PC dissolved in 10 mM acetate buffer (pH 5.0) was immobilized on a CM5 sensor chip to a response unit (RU) of 1000 with an amine coupling kit. Associations and dissociations of DrKIn-I were performed in 10 mM HEPES (N-2-hydroxyethylpiperazine-N′-2-ethanesulfonic acid; pH 7.4), 150 mM NaCl, 3 mM EDTA (ethylenediaminetetraacetic acid) and 0.05% P20 with a flow rate of 60 μl/min. The sensor surface was regenerated with 90 μl of 2 M MgCl2 and the signals obtained were subtracted by that obtained from the reference channel that had not been coated with ligands. Binding kinetics were determined by global fitting to 1:1 Langmuir binding model using the Biaevaluation software (GE Healthcare).

FXIa = target: T1, FXIa (Homo sapiens, UniProt P03951); test: Selectivity profile and Ki, amidolytic activity of FXIa; format: biochemical
T1 construct: factor XIa (FXIa); purchased Haematologic Technologies
Experimental: In each of these experiments, the molar ratio of protease active site to inhibitor was 1:1. The final concentrations of these proteases and their respective substrates were as follows: FXIIa (20 nM)/S-2302 (0.2 mM), FXIa (2.5 nM)/S-2366 (0.2 mM), FXa (10 nM)/S-2222 (1.3 mM), FIXa (200 nM)/Spectrozyme FIXa (1.3 mM), FVIIa (100 nM)/S-2288 (1.3 mM), thrombin (5 nM)/T-1637 (0.2 mM), kallikrein (5 nM)/S-2302 (0.2 mM), plasmin (20 nM)/S-2251 (0.2 mM), tPA (80 nM)/Spectrozyme tPA (0.2 mM), uPA (100 nM)/S-2288 (1.3 mM), APC (10 nM)/Spectrozyme PCa (0.2 mM) and trypsin (5 nM)/S-2222 (0.2 mM). Results shown are means±SD of at least three experiments.
DrKIn-I, with or without heparin, was screened for its inhibitory activity against trypsin and also against serine proteases in the coagulation cascade (FXIIa, FXIa, FXa, FIXa, FVIIa, thrombin and kallikrein) and in the fibrinolytic system (plasmin, tPA and uPA). The amidolytic activities of these proteases were determined in the presence or absence of equimolar concentrations of DrKIn-I using their respective chromogenic substrates.

FIX-deficient plasma = test: Thrombin generation assay in FIX-deficient plasma; format: biochemical; settings: 100 nM TM, 2 μg/ml heparan sulfate
Experimental: (A) Representative thrombin generation curves in FVIII-deficient and FIX-deficient plasma performed in the presence of heparan sulfate (2 μg/ml), TM (100 nM) and varying concentrations of DrKIn-I (●, 0 nM; ▪, 20 nM; ▴, 40 nM; ▾, 80 nM; ◯, 200 nM). Dashed lines represent thrombin generation in the absence of TM and DrKIn-I. (B-C) Activity in FVIII-deficient (B) and FIX-deficient (C) plasma. Left panels show ETP; right panels, peak thrombin. For comparison, dashed lines represent the activity of normal plasma containing TM and heparan sulfate in the absence of the inhibitor. Results are represented as means±SEM of at least three independent experiments.
Briefly, 80 μl of either normal plasma, protein C-deficient plasma, FVIII-deficient plasma or FIX deficient plasma containing 2 μM corn trypsin inhibitor, 2 μg/ml heparan sulfate (four disaccharide units long), 30 μM DOPC/DOPS/DOPE (60:20:20) and 100 nM recombinant TM was incubated with 20 μl of 500-fold diluted TF solution (Innovin; Dade Behring) in the absence or presence of the indicated concentrations of DrKIn-I. Following incubation for 3 minutes at 37° C., thrombin generation was initiated by the dispensation of 20 μl of 2.5 mM fluorogenic substrate (Z-Gly-Gly-Arg-AMC.HCl) dissolved in 0.15 M NaCl, 60 mg/ml BSA and 100 mM CaCl2. […] Results were evaluated using the Technothrombin TGA software (Technoclone).

APC = APC (Homo sapiens, UniProt P04070); test: Kinetic analysis of APC inhibition (Morrison tight binding equation); format: biochemical; parameters: purchased Haematologic Technologies
Experimental: Initial velocities of APC (20 nM) were measured in the presence of increasing concentrations of DrKIn-I (0-80 nM) using different concentrations of Spectrozyme PCa (●, 0.4 mM; ▪, 0.2 mM; ▴, 0.1 mM; ▾, 0.05 mM; ♦, 0.025 mM) as substrate.
APC was incubated with heparin and increasing concentrations of DrKIn-I for 3 minutes. The initial reaction velocities (mOD405 nm/min) were then determined at 37° C. after the addition of varying concentrations of Spectrozyme PCa. The final concentrations were as follows: APC (20 nM), heparin (0.1 U/ml), DrKIn-I (0-80 nM) and Spectrozyme PCa (0.025-0.4 mM). Initial velocities were plotted against inhibitor concentrations for each substrate concentration tested and the plots were subjected to nonlinear least squares regression using GraphPad Prism software. The inhibition constant (Ki) of DrKIn-I was determined by global fitting to Morrison's tight binding equation as shown below, Vs=(Vo/2Et){[Ki′+It−Et)^2+4Ki′Et]^1/2−(Ki′+It−Et) (Eq. 1) where Vs is the steady state velocity in the presence of inhibitor, while Vo is the velocity in the absence of inhibitor. It is the total inhibitor concentration and Et is the total enzyme concentration. Ki′ is the apparent inhibition constant. […] (vii) Selectivity Profile of DrKIn-I

T1 sequence (P03951 388-625 limits assumed): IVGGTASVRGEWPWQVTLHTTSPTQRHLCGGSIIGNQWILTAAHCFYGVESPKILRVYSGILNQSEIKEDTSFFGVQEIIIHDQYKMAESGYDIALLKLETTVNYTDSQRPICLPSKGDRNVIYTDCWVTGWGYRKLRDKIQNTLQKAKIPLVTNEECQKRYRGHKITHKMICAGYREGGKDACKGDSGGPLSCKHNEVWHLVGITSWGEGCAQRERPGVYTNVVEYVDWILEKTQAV
T1 sequence (P03951 19-387 limits assumed): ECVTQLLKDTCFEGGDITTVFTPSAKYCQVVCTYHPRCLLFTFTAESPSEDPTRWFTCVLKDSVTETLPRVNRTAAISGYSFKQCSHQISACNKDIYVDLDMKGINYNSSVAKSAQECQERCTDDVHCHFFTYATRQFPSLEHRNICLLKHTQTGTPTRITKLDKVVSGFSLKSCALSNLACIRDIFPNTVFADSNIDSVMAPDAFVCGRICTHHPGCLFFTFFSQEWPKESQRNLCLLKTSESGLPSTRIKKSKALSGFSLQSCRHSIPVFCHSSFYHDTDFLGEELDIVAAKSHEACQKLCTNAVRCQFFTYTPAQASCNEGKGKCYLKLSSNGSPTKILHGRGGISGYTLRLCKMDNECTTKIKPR

DrKIn-I (CGGNDNNFETRKKCRQTCGAPRKGRPT)
binding to immobilized protein C zymogen (protein C zymogen (PC)): No binding was observed | inhibition of FXIa (FXIa; equimolar DrKIn-I and enzyme active site, FXIa 2.5 nM): ~40% | Ki (FXIa; in the presence of heparin, read-out: Ki for FXIa inhibition): 1.33 ± 0.08 nM | DrKIn-I concentration correcting ETP to normal levels (FIX-deficient plasma): 160 nM | peak thrombin level relative to normal plasma (partial correction) (FIX-deficient plasma): approximately 85% | Ki (APC; 0.1 U/ml heparin, APC 20 nM, read-out: inhibition constant (Ki)): 0.053 nM and ~0.053 nM and ~0.05 nM | ratio of Ki for FXIa and plasmin to Ki for APC (APC; in the presence of heparin): at least 25 fold
